From paper PMC5496502 (Chemical Science, 2015) come the findings set out here.

The Kd is a measure of binding affinity in units of concentration.

This test concerns the target MET-Fc: extracellular MET domain fused with human IgG1-Fc (human, UniProt P08581 25-932). Briefly: AlphaScreen or HTRF. A general note: Alpha assays give light when donor and acceptor beads are brought close together.

Chain of MET-Fc: extracellular MET domain fused with human IgG1-Fc (P08581 25-932): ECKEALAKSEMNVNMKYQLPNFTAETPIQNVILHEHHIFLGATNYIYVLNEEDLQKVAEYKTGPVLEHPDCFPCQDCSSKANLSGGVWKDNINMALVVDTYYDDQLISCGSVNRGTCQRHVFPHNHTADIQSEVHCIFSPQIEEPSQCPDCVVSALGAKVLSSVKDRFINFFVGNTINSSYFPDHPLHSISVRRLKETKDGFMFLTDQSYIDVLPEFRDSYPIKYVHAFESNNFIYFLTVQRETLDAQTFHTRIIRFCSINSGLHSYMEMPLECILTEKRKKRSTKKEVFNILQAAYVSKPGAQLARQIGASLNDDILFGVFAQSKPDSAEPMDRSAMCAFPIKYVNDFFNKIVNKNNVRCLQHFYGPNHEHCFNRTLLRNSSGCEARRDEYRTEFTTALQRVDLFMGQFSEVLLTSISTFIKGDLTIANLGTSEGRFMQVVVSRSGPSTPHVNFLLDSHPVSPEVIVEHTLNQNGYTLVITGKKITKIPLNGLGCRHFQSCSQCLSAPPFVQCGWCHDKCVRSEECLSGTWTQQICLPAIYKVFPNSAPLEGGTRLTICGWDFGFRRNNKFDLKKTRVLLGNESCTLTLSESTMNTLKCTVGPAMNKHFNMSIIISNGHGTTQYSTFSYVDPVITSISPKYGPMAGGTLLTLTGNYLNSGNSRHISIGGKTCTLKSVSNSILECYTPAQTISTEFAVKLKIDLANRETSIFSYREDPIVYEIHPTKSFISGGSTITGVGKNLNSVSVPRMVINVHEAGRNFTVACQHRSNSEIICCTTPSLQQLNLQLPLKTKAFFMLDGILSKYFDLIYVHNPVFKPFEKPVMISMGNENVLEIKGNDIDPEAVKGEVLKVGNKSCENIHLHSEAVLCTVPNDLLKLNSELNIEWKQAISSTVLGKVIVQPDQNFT

B1: K1B: synthetic K1 domain of HGF/SF (residues 125-209) with C-terminal Gly-Gly-Lys(biotin) (domain or fragment)
chain: IRNCIIGKGRSYKGTVSITKSGIKCQPWSSMIPHEHSFLPSSYRGKDLQENYCRNPRGEEGGPWCFTSNPEVRYEVCDIPQCSEVGGK
modifications: biotin on the side chain of the added C-terminal lysine; three disulfide bonds
Molecule B1 had a Kd of approximately 16 nM.
